According to patent US20240409598A1, “PEPTIDE INHIBITORS OF INTERLEUKIN-23 RECEPTOR” (Janssen Biotech, Inc., priority 2021, published 2024):
*1 amine or outer side, *2 acyl side, *3 side chain or, on linkers, in order; H or OH if unused. Bridges are numbered along the chain shown (N, C = ends). Primed or numbered codes have the meaning given here. [ ]: non-standard residue; d: D form. AEF(G) = 4-(2-guanidinoethoxy)phenylalanine, N=C(N)NCCOc1ccc(C[C@H](N[*:1])C(=O)[*:2])cc1; Trp(7-Me) = Cc1cccc2c(C[C@H](N)C(=O)O)c[nH]c12; 3Pal(5-Me) = Cc1cncc(C[C@H](N)C(=O)O)c1; 2Nal = N[C@@H](Cc1ccc2ccccc2c1)C(=O)O; 3Pal = N[C@@H](Cc1cccnc1)C(=O)O; Pen = CC(C)(S)[C@H](N)C(=O)O; αMeC = C[C@](N)(CS)C(=O)O; AEF′ = not defined here; Abu = CC[C@H](N)C(=O)O; THP = not defined here; Sar = CNCC(=O)O

T1: interleukin-23 receptor (IL-23R) (UniProt Q5VWK5 24-629, limits assumed)
T1 sequence (looked up): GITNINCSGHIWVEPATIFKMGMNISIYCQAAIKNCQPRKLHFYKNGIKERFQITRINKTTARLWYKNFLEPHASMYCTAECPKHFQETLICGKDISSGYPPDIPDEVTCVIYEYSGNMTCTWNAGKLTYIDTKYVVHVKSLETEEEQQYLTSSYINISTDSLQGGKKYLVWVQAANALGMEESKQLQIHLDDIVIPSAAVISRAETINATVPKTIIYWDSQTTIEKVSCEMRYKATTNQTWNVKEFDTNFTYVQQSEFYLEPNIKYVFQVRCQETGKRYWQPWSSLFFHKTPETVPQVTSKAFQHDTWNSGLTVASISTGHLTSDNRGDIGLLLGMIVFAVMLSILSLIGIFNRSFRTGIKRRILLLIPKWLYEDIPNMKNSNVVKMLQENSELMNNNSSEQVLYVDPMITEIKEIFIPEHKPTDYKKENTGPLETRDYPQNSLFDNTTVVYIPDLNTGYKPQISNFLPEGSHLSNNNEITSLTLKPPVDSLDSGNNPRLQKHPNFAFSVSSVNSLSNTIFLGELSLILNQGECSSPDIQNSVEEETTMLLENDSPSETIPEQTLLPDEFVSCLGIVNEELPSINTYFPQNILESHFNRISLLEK

B1: Compound 478 (peptide)
peptide: Ac-[dR][Abu]NTWK(Ac)[αMeC][AEF′][2Nal][THP]ENX[Sar]-NH2
modifications: thioether 2-7; not fully specified (residue 13); printed as MeCO-r-Abu (1)-N-T-W-K(Ac)-aMeC (1)-AEF-2Nal-THP-E-N-3Pya-Sar-CONH2
B2: Compound 345 (peptide)
peptide: Ac-[dR][Pen]NT[Trp(7-Me)]K(Ac)[Pen][AEF′][2Nal][THP]EN[3Pal(5-Me)][Sar]-NH2
modifications: disulfide 2-7; reading uncertain; also: printed as MeCO-r-Pen-N-T-7MeW-K(Ac)-Pen-AEF-2Nal-THP-E-N-5MePyridinAla-Sar-CONH2
B3: Compound 477 (peptide)
peptide: Ac-[Pen]NT[Trp(7-Me)]K(Ac)[Pen][AEF(G)][2Nal][THP]EN[3Pal][Sar]-NH2
modifications: disulfide 1-6; reading uncertain; also: printed as MeCO-Pen-N-T-7MeW-K(Ac)-Pen-AEF(G)-2Nal-THP-E-N-3Pya-Sar-CONH2

Legend:
[1] = system: peripheral blood mononuclear cells (PBMCs); assay: PBMC pSTAT3 Assay; assay type: cell-based; details: PBMCs from healthy donors; IL-23 5 ng/ml; 30 minutes stimulation
Experimental: Cryopreserved peripheral blood mononuclear cells (PBMCs) from healthy donors were thawed and washed twice in ImmunoCult-XF T cell expansion medium (XF-TCEM) supplemented with CTL anti-aggregate wash. The cells were counted, resuspended at 2×10^5 cells per mL XF-TCEM supplemented with penicillin/streptomycin and 100 ng/ml […] (BioLegend, 579404), and cultured in tissue culture flasks coated with anti-CD3 (eBioscience, 16-0037-85 or BD Pharmingen, 555329) at 37° C. in 5% CO2. On day 4 of culture, PBMCs were collected, washed twice in RPMI-1640 supplemented with 0.1% BSA (RPMI-BSA), and incubated in RPMI-BSA in upright tissue culture flasks for 4 hours at 37° C. in 5% CO2. Following this ‘starvation,’ a total of 6×10^4 cells in 30 μL RPMI-BSA was transferred into each well of a 384-well plate pre-spotted with peptide or DMSO. The cells were incubated for 30 minutes prior to the addition of IL-23 at a final concentration of 5 ng/ml. The cells were stimulated with cytokine for 30 minutes at 370C in 5% CO2, transferred onto ice for 10 minutes, and lysed. Cell lysates were stored at −80° C. until phosphorylated STAT3 was measured using the phospho-STAT panel kit (Meso Scale Discovery, K15202D).

[2] = biological target: T1, interleukin-23 receptor (IL-23R); assay: cell-based or functional assay
[3] = biological target: T1, interleukin-23 receptor (IL-23R); assay: cell-based or functional assay; remark: listed apart in the source

Molecule	IC50 [1] [nM]	PBMC pSTAT3 IC50 [2] [pM]	IC50, IL23R Reporter Assay [3] [nM]
MeCO-r-Abu (1)-N-T-W-K(Ac)-aMeC (1)-AEF-2Nal-THP-E-N-3Pya-Sar-CONH2 [compound 478]	0.015	–	–
MeCO-r-Pen-N-T-7MeW-K(Ac)-Pen-AEF-2Nal-THP-E-N-5MePyridinAla-Sar-CONH2 [compound 345]	0.0076	–	–
B1	–	15	–
B2	–	7.6	5
B3	–	5.5	91
